Measurements as given in PMC10619424.

Molecular target: haloalkane dehalogenase DmmarA from Mycobacterium marinum M (Mycobacterium marinum M)
Assay: SAXS; SEC-purified DmmarA at 2, 4.5 and 8.7 mg/ml in 50 mM sodium acetate, 10 mM Tris pH 8.5; scattering curves fitted to the crystallographic monomer and dimer (CRYSOL), ab initio model (DAMMIN)

“haloalkane dehalogenase DmmarA from Mycobacterium marinum M (enzyme)” gave a stoichiometry N of 2.
